Assay results as given in PMC9634612, “Rapid and efficient room-temperature serial synchrotron crystallography using the CFEL TapeDrive” (IUCrJ, 2022).

Target: the molecule itself
Assay: crystal structure; room-temperature (293 K) serial synchrotron crystallography with the CFEL TapeDrive, 2.3 Å, space group I222, one monomer in the asymmetric unit, tetramer generated by symmetry; UOX with 5PMUA bound

B1: Aspergillus flavus urate oxidase (enzyme)
chain: MSAVKAARYGKDNVRVYKVHKDEKTGVQTVYEMTVCVLLEGEIETSYTKADNSVIVATDSIKNTIYITAKQNPVTPPELFGSILGTHFIEKYNHIHAAHVNIVCHRWTRMDIDGKPHPHSFIRDSEEKRNVQVDVVEGKGIDIKSSLSGLTVLKSTNSQFWGFLRDEYTTLKETWDRILSTDVDATWQWKNFSGLQEVRSHVPKFDATWATAREVTLKTFAEDNSASVQATMYKMAEQILARQQLIETVEYSLPNKHYFEIDLSWHKGLQNTGKNAEVFAPQSDPNGLIKCTVGRSSLKSKL
notes: Urate oxidase of Aspergillus flavus, untagged, from a codon-optimized synthetic cDNA in pET24b; One monomer in the asymmetric unit; the tetramer is generated by crystal symmetry; also called UOX; cofactor-free A. flavus urate oxidase
stoichiometry N: 4
